For test [1], the target named is T1, αWD40 Arg300Ala mutant (Schizosaccharomyces pombe, UniProt Q96WV5, R300A).
T1 construct: strep-tag (C); made in house; host or cells: Expi293 cells
T1 sequence (Q96WV5 1-327 R300A limits assumed): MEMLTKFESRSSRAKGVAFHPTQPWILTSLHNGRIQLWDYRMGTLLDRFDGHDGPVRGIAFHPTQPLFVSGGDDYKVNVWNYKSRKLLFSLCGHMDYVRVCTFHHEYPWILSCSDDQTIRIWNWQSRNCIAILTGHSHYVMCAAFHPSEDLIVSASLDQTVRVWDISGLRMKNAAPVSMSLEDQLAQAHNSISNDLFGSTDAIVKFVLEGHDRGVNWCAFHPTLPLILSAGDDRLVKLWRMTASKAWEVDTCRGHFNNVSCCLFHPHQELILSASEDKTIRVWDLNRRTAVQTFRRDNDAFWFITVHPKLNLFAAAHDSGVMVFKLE
Put plainly: biochemical. Type of test: binding, S. pombe. Conditions: pH 6.5.

Test [2] addresses T2, αWD40 Arg13Ala mutant (Schizosaccharomyces pombe, UniProt Q96WV5, R13A).
T2 construct: strep-tag (C); made in house; host or cells: Expi293 cells
T2 sequence (Q96WV5 1-327 R13A limits assumed): T1 sequence (Q96WV5 1-327 R300A limits assumed) with R13A, A300R
Put plainly: biochemical. Type of test: binding, S. pombe. As to conditions: pH 6.5.

Test [3] addresses T3, β‘WD40 domain (β‘-COPI) (Saccharomyces cerevisiae, UniProt P41811).
T3 construct: strep-Hisx6-SUMO (N, cleaved yes); made in house; host or cells: E. coli BL21(DE3)pLysS
T3 sequence (P41811 1-304 limits assumed): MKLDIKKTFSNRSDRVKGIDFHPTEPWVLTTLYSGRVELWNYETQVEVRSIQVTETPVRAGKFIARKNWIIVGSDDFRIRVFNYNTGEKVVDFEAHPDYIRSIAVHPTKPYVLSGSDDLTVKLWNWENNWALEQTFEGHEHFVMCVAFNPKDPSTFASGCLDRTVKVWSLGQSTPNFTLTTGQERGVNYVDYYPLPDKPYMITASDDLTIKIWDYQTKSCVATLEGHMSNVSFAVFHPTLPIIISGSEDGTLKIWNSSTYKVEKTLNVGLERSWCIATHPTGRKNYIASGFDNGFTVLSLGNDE
Put plainly: biochemical. Type of test: binding, S. cerevisiae. Conditions: pH 6.5.

Test [4] deals with Thr1273Glu clientized S tail 21mer peptide (BLI) (SARS-CoV-2). Put plainly: BLI; pH 7. Background: BLI is a label-free optical method that tracks binding on a fibre tip over time.
For test [5], the target named is amidated clientized Thr1273Glu S heptapeptide (SARS-CoV-2). Put plainly: BLI; […]; pH 6.5 ([…]; 25 °C; Octet RED96; […].
The target in test [6] is Thr1273Glu clientized S tail 21mer peptide (BLI) (SARS-CoV-2). Put plainly: BLI; […]; pH 6.5 ([…]; 25 °C; Octet RED96; […].
Test [7] deals with clientized GST-S tail fusion, Thr1273Glu (SARS-CoV-2). Put plainly: pull-down.
For test [8], the target named is clientized GST-S tail fusion, Thr1273Asp (SARS-CoV-2). Put plainly: pull-down.
For test [9], the target named is clientized Thr1273Glu SARS-CoV-2 S tail heptapeptide (1267Gly-Val-Lys-Leu-His-Tyr-Glu1273) (SARS-CoV-2). Put plainly: BLI; […]; pH 6.5 ([…]; 25 °C; Octet RED96; […].
In test [10] the target is wild-type SARS-CoV-2 S tail heptapeptide (1267Gly-Val-Lys-Leu-His-Tyr-Thr1273) (SARS-CoV-2). Put plainly: BLI; […]; pH 6.5 ([…]; 25 °C; Octet RED96; […].
Test [11] concerns the target T4, S. cerevisiae β‘-COPI WD40 domain (β‘WD40), wild type (S. cerevisiae, UniProt P41811 1-301).
T4 sequence: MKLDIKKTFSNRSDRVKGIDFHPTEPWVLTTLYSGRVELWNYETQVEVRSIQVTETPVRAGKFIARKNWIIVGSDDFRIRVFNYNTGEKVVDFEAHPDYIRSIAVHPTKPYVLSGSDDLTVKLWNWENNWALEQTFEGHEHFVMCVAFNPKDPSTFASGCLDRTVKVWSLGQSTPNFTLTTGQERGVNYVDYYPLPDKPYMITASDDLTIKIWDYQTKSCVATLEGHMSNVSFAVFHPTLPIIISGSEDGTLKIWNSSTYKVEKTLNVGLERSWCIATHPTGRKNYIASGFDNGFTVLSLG
Put plainly: BLI; […]; pH 6.5 ([…]; 25 °C; Octet RED96; […]. Conditions: both partners purified.

Residue numbers refer to the chain shown, from its start. No end group written: not given here.

A word on the koff: it is a measure of how fast the partners let go of each other. Read a low koff as a long-lived complex. Turning to GVKLHYE [GVKLHYE], the koff in test [1] came out at 0.43 ± 0.003 s⁻¹; in [2] it was 0.22 ± 0.008 s⁻¹; in [3], 1.27 ± 0.03 s⁻¹.

With GVKLHYT [GVKLHYT], the off-rate (koff) in test [1] worked out at 0.81 ± 0.007 s⁻¹; in [2], 0.38 ± 0.007 s⁻¹.

Usually Kd stands for the constant that tells how readily two partners part at equilibrium. Take “S. pombe α-COPI WD40 domain (αWD40), wild type (domain or fragment)”: the Kd was determined as 100 nM in test [4], 2300 nM in test [5] and 100 nM in test [6].

Consider “endogenous coatomer complex (mouse liver cytosol) (from UniProt Q8CIE6 1-1224; Q9JIF7 1-953; O55029 1-905; Q9QZE5 1-874; Q5XJY5 1-511; O89079 1-308; P61924 1-177)”, for which the fold binding over the Lys-x-Lys-x-xCT dibasic mutant in test [7] and in [8] was 2 fold each time. Also, the fold binding over the wild-type GST-S tail construct in test [7] and in test [8] was 17 fold throughout.

Usually kon stands for a measure of how fast the partners come together. In [9], “αWD40 Arg13Ala mutant (domain or fragment)” yielded a Kd of 3000 nM, an off-rate (koff) of 0.22 s⁻¹ and a kon of 132000 M⁻¹ s⁻¹. In test [10], this molecule had a Kd of 8500 nM, a dissociation rate constant (koff) of 0.38 s⁻¹ and a kon of 148000 M⁻¹ s⁻¹.

In [9], “αWD40 Arg300Ala mutant (domain or fragment)” displayed a dissociation constant Kd of 4200 nM, a dissociation rate constant (koff) of 0.43 s⁻¹ and an on-rate constant (kon) of 137000 M⁻¹ s⁻¹. In test [10], this molecule had a Kd of 3600 nM, a koff of 0.81 s⁻¹ and an on-rate (kon) of 360000 M⁻¹ s⁻¹.

B1: clientized Thr1273Glu SARS-CoV-2 S tail heptapeptide (1267Gly-Val-Lys-Leu-His-Tyr-Glu1273) (peptide)
peptide: GVKLHYE
notes: also called GVKLHYE; clientized S heptapeptide
For B1, in test [11], the Kd was 2300 ± 230 nM, the koff came to 1.27 s⁻¹ and the kon is 2.42e+06 M⁻¹ s⁻¹.

These data come from publication PMC10724246 (Nature Communications, 2023).
